Laboratory results published in patent publication US20220411514A1, “ANTI-GAL3 ANTIBODIES AND METHODS OF USE FOR INSULIN RESISTANCE” (TrueBinding, Inc., priority 2021, published 2022).
Positions count from the first letter of the chain named.

B1: 847.11D6: anti-Gal3 antibody (antibody, V domains shown)
VH: EVKLQQSGPELMKPGTSMKISCKASGYSFTGYTMNWVKQSHGKNLEWIGLINPYNGGTNYNQKFRGKATLSVDKSSNTAYMELLSLTSEDSAVYYCARKDDYYGSSPYALDYWGQGTSVTVSS
VL: DIVMTQSPASLAVSLGQRATISCRASESVENHVNSFMHWFQQKPGQPPKLLIYRASNLQSGIPARFSGSGSRTDFTLTINPVEADDVATYYCQQNNEVPYTFGGGTKLEIK
B2: 7D8.2D8: anti-Gal3 antibody (antibody)
heavy: EVQLVESGGGLVKPGGSLKLSCAASGFTFSSYAMSWVRQTPEKRLEWVATISDGGIYTYYPDNVKGRFTISRDNAKNNLFLQMSHLKSEDTAMYYCVRDGGYWGQGTTLTVSSAKTTPPSVYPLAPVCGDTTGSSVTLGCLVKGYFPEPVTLTWNSGSLSSGVHTFPAVLQSDLYTLSSSVTVTSSTWPSQSITCNVAHPASSTKVDKKIEPRGPTIKPCPPCKCPAPNAAGGPSVFIFPPKIKDVLMISLSPIVTCVVVDVSEDDPDVQISWFVNNVEVHTAQTQTHREDYNSTLRVVSALPIQHQDWMSGKEFKCKVNNKDLGAPIERTISKPKGSVRAPQVYVLPPPEEEMTKKQVTLTCMVTDFMPEDIYVEWTNNGKTELNYKNTEPVLDSDGSYFMYSKLRVEKKNWVERNSYSCSVVHEGLHNHHTTKSFSRTPGK
light: DVLMTQTPLSLPVSLGDQASISCRSSQSIVHSNGNTYLEWYLQKPGQSPKLLIYKVSNRFSGVPDRFSGSGSGTDFTLKISRVEAEDLGVYYCFQGSHVPLTFGAGTKLELKRADVAPTVSIFPPSSEQLTSGGASVVCFLNNFYPKDINVKWKIDGSERQNGVLNSWTDQDSKDSTYSMSSTLTLTKDEYERHNSYTCEATHKTSTSPIVKSFNRNEC
modifications: 7D8.2D8 heavy chain peptide sequence; 7D8.2D8 light chain peptide sequence
notes: anti-Gal3 antibody
B3: 847.21B11: anti-Gal3 antibody (antibody, V domains shown)
VH: QVQLKQSGPGLVAPSQSLSITCTVSGFSLTSYGVHWVRQPPGKGLEWLGIIWAGGSTNYNPALMSRLSISKDKSKSQVFLKMNSLKTDDTAMYYCARDRASLLRPGAMDYWGQGTSVTVSS
VL: DIVMTQSQKFMSTSVGDRVSVTCKASQNVGINVAWYQQKPGQSPKALIYSASYRYSGVPDRFTGSGSGTDFTLTISNVQSEDLAEYFCQQYNSYPYTFGGGTKLEMK
B4: 847.4D3: anti-Gal3 antibody (antibody, V domains shown)
VH: EVQLVESGGGLVKPGGSLKLSCAASGFTFSSYAMSWVRQTPEKRLEWVASISSGDSPYYPDSVKGRFTISRDNARNILYLQMSSLRSEDTAMYYCTRFTTVVEMDYWGQGTSVTVSS
VL: DVVMTQTPKFLPITAEDRVTITCKASQSVSNEVAWYQQKPGQSPKLLIYYASNRYTGVPDRFTGSGSGTDFTFTIRSVQLEDLAVYFCQQHYSSPWTFGGGTKLEIK
B5: 2D10.2B2: anti-Gal3 antibody (antibody)
heavy: QVQLQQSGPELVKPGASVKISCKASGYTFTDYYINWVKQRPGQGLEWIGWIYPGSNDTKYNEKFKGKATLTVDTSSSTAYMQLGSLTSEDSAVYFCANYFGCSGWFFDVWGTGTTVTVSSAKTTPPSVYPLAPVCGDTTGSSVTLGCLVKGYFPEPVTLTWNSGSLSSGVHTFPAVLQSDLYTLSSSVTVTSSTWPSQSITCNVAHPASSTKVDKKIEPRGPTIKPCPPCKCPAPNAAGGPSVFIFPPKIKDVLMISLSPIVTCVVVDVSEDDPDVQISWFVNNVEVHTAQTQTHREDYNSTLRVVSALPIQHQDWMSGKEFKCKVNNKDLGAPIERTISKPKGSVRAPQVYVLPPPEEEMTKKQVTLTCMVTDFMPEDIYVEWTNNGKTELNYKNTEPVLDSDGSYFMYSKLRVEKKNWVERNSYSCSVVHEGLHNHHTTKSFSRTPGK
light: DIVMTQAAFSNPVTLGTSASISCRSSKSLLHSDGITYLYWYLQRPGQSPQLLIYRMSNLASGVPDRFSGSGSGTDFTLRISRVEAEDVGVYYCAQMIEFPLTFGAGTILELKRADVAPTVSIFPPSSEQLTSGGASVVCFLNNFYPKDINVKWKIDGSERQNGVLNSWTDQDSKDSTYSMSSTLTLTKDEYERHNSYTCEATHKTSTSPIVKSFNRNEC
modifications: 2D10.2B2 heavy chain peptide sequence; 2D10.2B2 light chain peptide sequence
notes: anti-Gal3 antibody
B6: 849.4F12: anti-Gal3 antibody (antibody, V domains shown)
VH: QVQLKESGPGILQPSQTLSLTCSFSGFSLSTFGMGVGWIRQPSGKGLEWLAHIWWDDDKHYNPALKSRLTISKDTSKNQVFLRIANVDTADNATYYCARIDYGDYVGFAYWGQGTLVTVSA
VL: DILLTQSPSSMSVSLGDTVSITCHASQGINSNIGWLQQKPGKSFKGLIYHGTNLEDGVPSRFSGSGSGADYSLTISSLESEDFADYYCVQYDQFPWTFGGGTKLEIK
B7: 847.15F9: anti-Gal3 antibody (antibody, V domains shown)
VH: QVQMKQSGPGLVQPSQSLSITCTVSGFSLINYGVHWVRQSPGKGLEWLGVIWSGGSTDYNAAFISRLSISKDNSKSQVFFKMNSLQADDTAIYYCARIYYYGRGYAMDYWGQGTSVTVSS
VL: QIVLSQSPAILSASPGEKVTMTCRASSSVTYMYWYQQKPGSSPQPWIYATSNLASGVPARFSGSGSGTSYSLTISRVEAEDAATYYCQQWSSNPLTFGAGTKLELK
B8: 847.2B8: anti-Gal3 antibody (antibody, V domains shown)
VH: B7 VH with M4L
VL: B7 VL with V3L

Experiments:
human Gal3 = target: T1, human Gal3 (Homo sapiens, UniProt P17931); assay: Epitope binning, sandwich format, SPR Carterra LSA (Example 8); type: binding
T1 construct: 6xHis (linker-spaced) (C); purchased AcroBio (Acro Biosystems) GA3-H5129
T1 sequence (P17931 whole entry): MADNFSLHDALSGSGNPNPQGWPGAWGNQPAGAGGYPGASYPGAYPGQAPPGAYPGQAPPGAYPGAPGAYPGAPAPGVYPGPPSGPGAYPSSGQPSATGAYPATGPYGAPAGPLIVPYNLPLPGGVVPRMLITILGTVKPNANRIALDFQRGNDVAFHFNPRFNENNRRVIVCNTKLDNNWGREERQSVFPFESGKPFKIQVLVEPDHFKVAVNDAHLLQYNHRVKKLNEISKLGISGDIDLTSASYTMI
Protocol: The epitope binning assay was done in a sandwich format on the high-throughput SPR-based Carterra LSA unit (CarterraBio, Salt Lake City, Utah). First, the purified antibodies were diluted to 10 μg/ml concentration in 10 mM NaOAc (pH 5.0) and then were covalently coupled via amine group to HC200M chip activated by EDC and S-NHS to immobilize antibodies to different positions of a 384-spot array. One hundred thirty-eight binning cycles were run on the array of immobilized antibodies. In each cycle, first, human Gal3 (AcroBio GA3-H5129) was injected over the entire array to bind to different antibodies (primary antibody), followed by one antibody (secondary antibody) selected among the panel of 150 anti-GAL3 antibodies tested. At the end of each cycle, the array was regenerated by 10 mM Glycine (pH 2.0) to remove bound antigen and secondary antibody from the array. The data analysis was done using the Epitope software by CarterraBio.

Human Gal3 peptides [1] = assay: Gal3 peptide binding ELISA (Example 8); conditions: antibody 5 μg/mL
Protocol: (§1) Gal3 peptide binding activity of additional exemplary anti-Gal3 antibodies was assessed with the same peptides as described in FIG. 18 (SEQ ID NOs: 3-26). Human Gal3 peptides (LifeTein, custom order) and human Gal3 proteins (R&D Systems, 8259-GA; TrueBinding, QCB200349) were diluted in PBS (Corning, 21-030-CM) to concentrations of at least 100 μg/mL (peptides) or 1 μg/mL (proteins), and added to the wells of several 96-well ELISA plates (Thermo Fisher, 44-2404-21). After incubating the plates at 4° C. overnight, the plates were washed three times with PBST (PBS with 0.05% Tween 20 [VWR, 0777]). The plates were then blocked for an hour with 2% BSA (EMD Millipore, 126609) in PBST at room temperature with gentle rocking. Thereafter, the 2% BSA in PBST was discarded and Gal3-binding antibodies (reformatted hIgG4 [S228P]) were diluted in 2% BSA in PBST to concentrations of 5 μg/mL and added to the wells. The plates were incubated for an hour at room temperature with gentle rocking and then washed three times with PBST. Afterwards, Peroxidase AffiniPure F(ab′)2 Fragment Goat Anti-Human IgG (H+L) polyclonal antibody (Jackson ImmunoResearch, 109-036-003), was diluted in 2% BSA in PBST (1:4000) and added to the wells. The plates were incubated for 1 hour at room temperature with gentle rocking and then washed three times with PBST. TMB substrate (Thermo Scientific, 34029) was then added to each well. The reaction was stopped with 1M HCl (JT Baker, 5620-02) and read using a plate reader (Molecular Devices) at absorbance of 450 nm.

hGal3 peptide = target: T2, hGal3 peptide (Homo sapiens, UniProt P17931); assay: Gal3 peptide library binding ELISA (Example 2)
T2 construct: a library of 24 amino acid peptides representing portions of Gal3
Protocol: To identify the epitopes to which Gal3 antibodies with and without Gal3-INSR blocking activity bound, a library of 24 amino acid peptides representing portions of Gal3, depicted in FIG. 18, was produced and the ability of each peptide to bind Gal3 antibodies was evaluated by ELISA. At least 2 μg/ml of hGal3 peptide in 50 μl of PBS or 0.1 μg/ml of full-length human Gal3 protein (GenScript) and human Galectin-3 protein (Acro Biosystems, GA3-H5129) were diluted in PBS (Corning, 21-030-CM) to concentrations of at least 2 μg/ml or 0.1 μg/ml, respectively, and added to the wells of a 96-well ELISA plate (Thermo Fisher, 44-2404-21). After incubating the plate at 4° C. overnight, the plate was washed three times with PBST (PBS with 0.05% Tween 20 [VWR, 0777]). The plate was then blocked for an hour with 2% BSA (EMD Millipore, 126609) in PBST at room temperature with gentle rocking. Thereafter, the 2% BSA in PBST was discarded and human Galectin-3 hybridoma supernatants or antibodies were diluted in 2% BSA in PBST to concentrations of at least 0.1 μg/ml and added to the wells. The plate was incubated for an hour at room temperature with gentle rocking and then washed three times with PBST. Afterwards, Goat Anti-Mouse IgG-HRP (Jackson ImmunoResearch, 115-036-1461) or Goat Anti-Rat IgG HRP (Abcam, ab205720) diluted in 2% BSA in PBST (1:4000) were added to the wells. The plate was incubated for 30 minutes to 1 hour at room temperature with gentle rocking and then washed three times with PBST. TMB substrate (Thermo Scientific, 34029) was then added to each well. The reaction was stopped with 1M HCl (JT Baker, 5620-02) and read using a plate reader (Molecular Devices) at absorbance of 450 nm.

Human Gal3 peptides [2] = target: T3, Human Gal3 peptides (Homo sapiens, UniProt P17931); assay: Gal3 peptide binding ELISA (Example 8); conditions: antibody 5 μg/mL
T3 construct: purchased LifeTein custom order
Protocol: as §1

| Molecule | binding to any of the tested Gal3 peptides (Human Gal3 peptides [1]) | binding to hGAL3 when immobilized on HC200M chip (human Gal3) | also measured |
| --- | --- | --- | --- |
| B1 | not found to bind |  | epitope bin (mutual competitive binding for Gal3) (human Gal3): CRD |
| B2 |  |  | binding to Gal3 peptide 7 (amino acids 61-80, SEQ ID NO: 9) (hGal3 peptide): bound; binding to Gal3 peptide 2 (SEQ ID NO: 4) (Human Gal3 peptides [2]): bound; binding to Gal3 peptide 3 (SEQ ID NO: 5) (Human Gal3 peptides [2]): bound; binding to Gal3 peptide 17 (SEQ ID NO: 19) (Human Gal3 peptides [2]): bound |
| B3 | not found to bind | not bind |  |
| B4 | not found to bind | not bind |  |
| B5 |  |  | binding to Gal3 peptide 6 (amino acids 51-70, SEQ ID NO: 8) (hGal3 peptide): bound; binding to Gal3 peptide 6 (SEQ ID NO: 8) (Human Gal3 peptides [2]): bound |
| B6 | not found to bind | not bind |  |
| B7 | not found to bind | not bind |  |
| B8 | not found to bind | not bind |  |
